For 13 sequences, protein production results are on record in a protein production outcome set (Wang et al. 2014).

A short description of this series: label from the status in PepcDB records.
For the sequence “MVKKMKSKTISTIHIDTFSIPFPFVAMSNKVCRGYTLIRAFGITALAILILVGIAGAAPFAYVTNIGDYDQRGPNVAVIDTATNNVTARVPLGGGWPVGVAVNPAGTKIYVVDSPSDSTVYVIDTATNKVSAKVNLGSSYPARITFNPAGTRVYVTKQHDYTDIFVINPATNTLMAPIIVGPSTYGIAFTPDGKKIYAANCNNNTIYVIDAATNKVTANISVGDSPCGIAVTPDGKKVYVLNYDSNTVSVINTATDNVIATVPVGNSPNLVAVTSNGNKVYVANNNTVSVIDTATNNVIATIPVGTSSRKIVINPDGNRVYLVNFGSNSVSVIDTATDNVIANVPVGEQPMGIAVTPDGKRVYVTNSRSSNVSVIDTATDTVAATVNAGILPTGVVIVPLTDSDMTSQSTGAISSSTEDRGIEVTNISSSEEINAVELNNYSDENNPESDNDNGSNANDSSKNNSTPGFGLLESLAGLYVGWKLGKR”, the protein production result is listed as “failed”.

Take “MKQLNDGDFIKIEFEMRVGEEKKLVSTSKADLAKENDIFDENARYGDIVVIVGQEGIFKEVNEAFRKAEPGQEVEVEVPPEDAFGQRLPSNIKIHTMREFQRLEHHHHHH”: the protein production result is “not failed”.

For “MFLGEDYLLTNRAAVRLFNEVKDLPIVDPHNHLDAKDIVENKPWNDIWEVEGATDHYVWELMRRCGVSEEYITGSRSNKEKWLALAKVFPRFVGNPTYEWIHLDLWRRFNIKKVISEETAEEIWEETKKKLPEMTPQKLLRDMKVEILCTTDDPVSTLEHHRKAKEAVEGVTILPTWRPDRAMNVDKEGWREYVEKMGERYGEDTSTLDGFLNALWKSHEHFKEHGCVASDHALLEPSVYYVDENRARAVHEKAFSGEKLTQDEINDYKAFMMVQFGKMNQETNWVTQLHIGALRDYRDSLFKTLGPDSGGDISTNFLRIAEGLRYFLNEFDGKLKIVLYVLDPTHLPTISTIARAFPNVYVGAPWWFNDSPFGMEMHLKYLASVDLLYNLAGMVTDSRKLLSFGSRTEMFRRVLSNVVGEMVEKGQIPIKEARELVKHVSYDGPKALFFG”, the protein production entry is given as “not failed”.

As for “MSDSSPTINFINFNQTGTCISLGTSKGFKIFNCEPFGKFYSEDSGGYAIVEMLFSTSLLALVGIGDQPALSPRRLRIINTKKHSIICEVTFPTSILSVKMNKSRLVVLLQEQIYIYDINTMRLLHTIETNPNPRGLMAMSPSVANSYLVYPSPPKVINSEIKAHATTNNITLSVGGNTETSFKRDQQDAGHSDISDLDQYSSFTKRDDADPTSSNGGNSSIIKNGDVIVFNLETLQPTMVIEAHKGEIAAMAISFDGTLMATASDKGTIIRVFDIETGDKIYQFRRGTYATRIYSISFSEDSQYLAVTGSSKTVHIFKLGHSMSNNKLDSDDSNMEEAAADDSSLDTTSIDALSDEENPTRLAREPYVDASRKTMGRMIRYSSQKLSRRAARTLGQIFPIKVTSLLESSRHFASLKLPVETNSHVMTISSIGSPIDIDTSEYPELFETGNSASTESYHEPVMKMVPIRVVSSDGYLYNFVMDPERGGDCLILSQYSILMD”, the protein production entry is “failed”.

For “MSLSNTPIELKGSSFTLSVVHLHEAEPEVIRQALEDKIAQAPAFLKHAPVVINVSGLESPVNWPELHKIVTSTGLRIIGVSGCKDASLKVEIDRMGLPLLTEGKEKAVRPAPEGHHHHHH”, the protein production result is “not failed”.

Turning to “MLQYILAEHPFFVATGALYAAAAGFYAAAWRSTRALVGRAATALLCAALAFNAGLIVERWIEAGRAPFKSLFESLVFFAFTTGVVYLAFERLYRTRVFGALAALLTLALLGYALGKWDAEIVKLPPALQSAWFVPHVVVYFVGYAAVSLAALLAAVQLLAPRVPLLQRLTTLRAGTILTGKALDLEQMTYELIRFGFVLLTVGLLVGSVWAKSAWGDFWVWDPKENWSLVTWLVYGAYLHLRKVRGWRGDRAAWLVLLGFAVVMFTYLGMSMLPTAEESAHVYTG”, the protein production entry is on record as “failed”.

In the case of “SAQDEEDRVLIHFNVRDIKIGPECHDVQPPEGRSRDGLLTVNLREGGRLHLCAETKDDALAWKTALLEANSTPVRVYSPYQDYYEVVPPNAHEATYVRSYYGPPYAGPGVTHVIVREDPCYSAGAPLAMGMLAGAATGAALGSLMWSPCWF”, the protein production entry is recorded as “failed”.

Take “MAMVASVSMAFVLVFCTILLFHFVQQSRFTTATQLESIARSVREPLSAAILKADIPEAEAILSRIQPAGIVSRADVVLPNQFQALRMRFIPERPVPVTVTRLFELPVQISLPIYSLERPANPQPLAYLVLQADSYRMYKFVMSALATLVTAYLLLVLMLTVALTWCINRLMVRPLRRIARELNDLSQQERLGHQLTLPRLHHDDEIGMLVRSYNRNQQSLVRQHDELSIQSTRFPVSELPNKAFLLAMLEQTVARPQSAALIVVACETLQDAAGVLKESQREMLLLTLVEKLRAAIPPQMVLAQVSGYDFAILADGLAEPWQAVTLSKQVLTIINERLPLHGLQLRPYASVGIAMFHAGLSAEQFYRRAVSAAVTARRKGKNQIEFFDPEQMEKAQRRLMEEHDIMTALDNQQFAIWLQPQVACASGEICGAEVLLRQRQADGSWSLPPSLIERIESCGLIIPVGYWVMEEACRQLAAWQSQGIMLPLSVNVSLLQLLEHDRGEEMLKLIARYRIAPGTLILEVTESCRMDDPQDVMARLRPLREAGVQIALDDFGMGYAGLHQLQQMKALPVDILKIDKVFIDMLPEDVSMVPAMIQLARGLSLRIVAEGVENDAQRRWLQAAGVEVLQGHLFGCALPQEAFSARYLSPAREDVNL”: the protein production result is recorded as “failed”.

“MTDLPPPFTTLAAAHRVDAVIDHSEFLAFAERADSPEEALAHLAALRTRYPDATHHCWAYRIGAAYRFGDDGEPGGTAGAPILRAIEGQGVDHVMVVVVRYYGGVKLGTGGLVRAYGGVAAECLRTAPRLDVRPRRTLQVSVPFDHLSGLYHLLGTWDAARGEETYTGAGVTLPVEVYPEDVEAFQAALRDATRGSAVVEEEE”: the protein production result is “not failed”.

Consider “MSSALLRAAYAYDRLRAHPPEVAGQIATAMASAVHPKGEEPVFLELGVGTGRIALPLIARGYRYIALDADAAMLEVFRQKIAGVDRKVQVVQADARAIPLPDESVHGVIVVHLWHLVPDWPKVLAEAIRVLKPGGALLEGWDQAEASPEWTLQERWRAFAAEEGFPVERGLHAKRLKEVEEALRRLGLKPRTREVARWREERTPREALEALSERLYSFTQGLPEPVHARVMERLWAWAEAELGDLDRPFPVEKRFLLRVSRLG”, for which the protein production result was “not failed”.

For the sequence “MRFFVFLKTLQSRSFCIFQQSFLLFFTSFFIIFVSNLCFISRGYGQNPPSLPAEPPSPQLLLPLDDLIPNDPSSAPAEPNSDSAATILEDFDAVHQSYAQRTEQRKEAEILRLLKELKFCADVEKARKISQQLQRLWSQSGSETIDLLMLWAENAINADNYGLALDYIDNALALLPTYAEGWIRRAWVHIQLSDFKLAMLDLNHALKLEPRNYIAFFELGITMEATERPKLALKAYETALEYYPQMQKVQKRIEELLDKQSPQAL”, the protein production result was “failed”.

Consider “MQLMRFDKPIGTLLLLHPTLWALFAAAGGIPSSSILIIFILGVIVMRAAGCVINDYADRHIDGKVKRTSQRPLATGRVTTVEAKVLFFVLLIIAFLLDLSLNQYAFLLSFVAVALAVIYPFMKRFTHLPQVVLGMAFGWAIPMAYGAVIEDLPLTCWLLFLANILWTVAYDTQYAMVDRDDDLRIGVKSTAILFAQYDNKIIALLQFLSLILFILFGWLSEYHIGYFIVLALTSTLFIYQCWLTKQRVREQCFKAFLNNNYFGFGIFIAILVGIYGF”, for which the protein production entry is reported as “failed”.

With “MSFASETKKELTNLEVKDCCAKAELSALIRMNGSLSFSNRKVVLDVQTENAAIARRIYTLLKKQYDVSVELLVRKKMRLKKNNVYIVRLIENAKPILEDLKILGDNFVIARNISEDLVKKRCCKRSYMRGAFLAGGSVNNPETSSYHLEIFSLYKEHNDSLCRLMNQFHLNSKTLERKKGYITYLKEAEKITEFLNVIGAHNSLLRFEDVRIVRDMRNSVNRLVNCETANLNKTIGASLRQVENIKLIDERIGLDALPEKLREIAQLRIDYQEVTLKELGEMVSSGKISKSGINHRLRKLDEIAEQLR”, the protein production result is given as “not failed”.
